These are literature values, as cited in US20250177452A1, “USE OF IMMUNOSUPPRESSION TO ENABLE ENGRAFTMENT OF HEMATOPOIETIC STEM CELLS” (The Board of Trustees of the Leland Stanford Junior …, priority 2022, published 2025).

Series [1] concerns the target T1, CD52 (Homo sapiens, UniProt P31358).
T1 construct: CD52 is expressed on 95% of peripheral blood lymphocytes, monocytes and thymocytes; host or cells: endogenous CD52 on peripheral blood lymphocytes in vivo
The note with it: single injection.

The conditions of series [2]: in vivo.

For the molecule “Alemtuzumab: recombinant humanized monoclonal antibody against CD52”, the depletion of lymphocytes result in series [1] is recorded as “over 99%”.

B1: IMGN901: CD56-targeting antibody-drug conjugate delivering the cytotoxic maytansinoid DM1 (conjugate, chains of the INN, looked up)
VH: QVQLVESGGGVVQPGRSLRLSCAASGFTFSSFGMHWVRQAPGKGLEWVAYISSGSFTIYYADSVKGRFTISRDNSKNTLYLQMNSLRAEDTAVYYCARMRKGYAMDYWGQGTLVTVSS
VL: DVVMTQSPLSLPVTLGQPASISCRSSQIIIHSDGNTYLEWFQQRPGQSPRRLIYKVSNRFSGVPDRFSGSGSGTDFTLKISRVEAEDVGVYYCFQGSHVPHTFGQGTKVEIK
modifications: DM1 maytansinoid payload
notes: CD56-targeting antibody-drug conjugate delivering the cytotoxic maytansinoid DM1
In the case of B1, in series [2], the “maximum tolerated dose (MTD)” value was “about 75 mg/m^2”.
